Residue numbers refer to the chain shown, from its start.
B1: H1H728N (antibody, V domains shown)
VH: EVQLVESGGDLVQPGGSLRLSCTASGFTFSKYWMTWVRQAPGRGLEWVANIKEDGNEKYFLDSVKGRFTISRDNAKDLLFLQMNSLRGEDTAVYYCVRDRGIEVAGPFDYWGQGTLVTVSS
VL: DIQMTQSPSTLSASVGDRVTVTCRASQTIINWLAWYQQKPGKAPKLLISKASSLESGVPSRFSGSGSGTEFTLTISSLQPDDFATYYCQQYNRYWTFGQGTMVEIK
B2: H1H730N (antibody, V domains shown)
VH: EVQLVESGGGLVQPGGSLRLSCAASGFAFRSYWMTWVRQAPGKGLEWVANIQQDGNDKYYVDSVKGRFTISRDNAKNSLYLQMNSLRAEDTAVYYCARDTGIAEAGPFDYWGQGTLVTVSS
VL: B1 VL with T20S, V21I, N31S, K45R, S49Y, S76N, M102K
B3: H1H743N (antibody, V domains shown)
VH: EVQLLESGGGLVQPGGSLRLSCAASGFTFRKYAMSWVRQAPGKGLEWVSVISVSGGNTYYADSVKGRFTISRDNSKNTLYLQLNSLRAEDTAVYYCAKDLTDIVLMVYVDYWGQGTLVTVSS
VL: DIQMTQSPSSVSASVGDRVTITCRASQDIDRWLAWYQQKPGKAPKLLIYAASSLQSGVPSRFSGSGSGTDFTLTISTLQPEDFATYYCQQANSLPFTFGGGTKVEIK
B4: H1H749N (antibody, V domains shown)
VH: QVQLVESGGGVVQPGRSLRLSCAASGFTFSSYGMHWVRQAPGKGLEWVAVIWYDEFNKYYADSVKGRFTISRDNSKNTLYLQMNSLRAEDTAVYYCARERESGYSYGFDYWGQGTLVTVSS
VL: EIVMTQSPATLSVSPGERATLSCRAGQSVSSNLAWYQQKPGQAPRLLIYGASTRATGIPARFSGSGSGTEFTLTISSLQSEDFAVYYCQQYNNWWTFGQGTKVEIK
B5: H1H695P (antibody, V domains shown)
VH: QVQLVESGGGVVQPGRSLRLSCAASGFTFSSYGMHWVRQAPGKGLEWVAVMWYDETNKYYADSVKGRFTISRDNSKNTLYLQMNSLRAEDTAVYYCARYSGYEDYYHGMDVWGQGTTVTVS
VL: B4 VL with L11P, G26S, V29I, Q90H, W95I, K102R, V103L
B6: H1H724N (antibody, V domains shown)
VH: QVQLVESGGGVVQPGRSLRLSCAASGFTLSNYGMHWVRQAPGKGLEWVAVIWHDGSNTYYADSVKGRFTISRDNSKNTLYLQMNSLRAEDTAVYYCTREGLDFWSGYYPNWFDPWGQGTLVTVSS
VL: DIQMTQSPSSLSASVGDRVTITCRASQGIRNDLGWYQQKPGKAPKRLIYAASNLQGGVPSRFSGSGSGTEFTLTISSLQPEDFAAYYCLQHNIYPLTFGGGTKVEIK
B7: H1H732N (antibody, V domains shown)
VH: EVQLVESGGGLVRPGGSLRLSCAASGFTFTNAWMSWVRQAPGKGLEWIGQIKSKTDGGTIDYAAPVKGRFTVSRDDSENTLFLQMNSLKTEDTAVYYCAGNWNYVDFDYWGQGTLVTVSS
VL: B6 VL with G28D, N53S, A85T, I93S, L96F, G100P, E105D
B8: H1H750N (antibody, V domains shown)
VH: QVKLVESGGGVVQPGRSLRVSCAASGFTFSSYGMHWVRQAPGKGLEWLAIIWYDGDNKYYSDSVKGRFTISRDNSKNTLYLQMNSLRAEDTAEYYCVRDASIASRFLDYWGQGTLVTVSS
VL: DIQMTQSPSSLSASIGDRVTITCRATQDINNYLAWFQQKPGKAPKSLIYATSNLQSGVPSKFSGSGSGTDYTLTISSLQPEDFSTYYCQQYHSYPLTFGGGTKVEIK
B9: H1H704P (antibody, V domains shown)
VH: QVQLVESGGDVVQPGRSLRLSCAASGFTFSSYGMHWVRQAPGKGLEWVAIIWYDGSNKYYADSVKGRFTISRDNSKNTLYLQMNSLRVEDTAVYSCARDFSISSRHFDYWGQGTLVTVSS
VL: DIQMTQSPSSLSASVGDRVTITCRASQAINNYLAWFQQKPGKAPKSLIYATSNLQSGVPSQFSGSGSGTDYTLTISSLQPEDFATYYCQQYYIYPITFGQGTRLEIK
B10: H1H742N (antibody, V domains shown)
VH: DVQLLESGGDLVQPGGSLRLSCEASGFTFRNYVMIWVRQAPGKGLEWVSGISNSGGTTHYTDSVKGRFTISRDNSKNTLYLQINSLRAEDTAVYYCAKGYLDTSLIEGNWFDPWGQGTLVTVSS
VL: NIVMTQSPLSLPVTPGEPASISCRSSQSLLHSNGFNYLNWFLQKPGQSPQLLIYLGSNRASGVPDKFSGSGSGTDFTLNINRVEAEDVGIYFCMQTLQTPLTFGGGTKVEIK
B11: H1H706P (antibody, V domains shown)
VH: QVQLVESGGGVVQPGRSLRLSCAASGFTFSSYGMHWVRQAPDKGLEWVAVKWDDGSNKYYADSVKGRFTISRDNSKNTLYLQMNSLRAEDTAVYYCAREGPYDFYSGYGAFDIWGQGTMVTVSS
VL: DIQMTQSPSSLSASVGDRVTITCRASQGISNYLAWFQQKPGKAPKSLIYAASSLQSGVPSKFSGSGSGTDFTLTISSLQPEDFATYYCQQYNSYPRTFGQGTKVEIK
B12: H1H696P (antibody, V domains shown)
VH: QVQLVESGGGLVKPGGSLRLSCAASGFTFSDYYMSWIRQAPGKGLEWVSYISYTGRTIYYADSVKGRFTISRDNAKNSLYLQMNSLRAEDTAVYYCARDTDYGDFFDYWGQGTLVTVSS
VL: B11 VL with R96L, Q100G
B13: H1H693P (antibody, V domains shown)
VH: EVQLVESGGGLVQPGESLRLSCAASGFTFSSYAMSWVRQGPGKGLEWVSSISGSGGTTYYADSVEGRFTISRDNSKNTLYLHMNSLRAEDTAVYYCAKDFLDYSTYLAFDLWGQGTMVTVSS
VL: B3 VL with D28G, D30S, R31S, T77S, L94F, F96R, G100Q
B14: H1H707P (antibody, V domains shown)
VH: B11 VH
VL: not shown
B15: H1H691P (antibody, V domains shown)
VH: EVQLVESGGGLVQPGRSLRLSCAASGFTFDDYAMHWVRQAPGKGLEWVSGISWNSGDIGYADSVKGRFTISRDNAKNSLYLQMNSLRAQDTALYYCAKAYGDYYYFYGMDVWGQGTTVTVS
VL: EIVLTQSPGTLSLSPGERATLSCRASQSVSSSYLAWYQQKPGQAPRLLIFSASSRATGIPDRFSGSGSGTDFTLTISRLEPEDFAVYYCQQYDNSLTFGGGTKVEIK
B16: H1H690P (antibody, V domains shown)
VH: B13 VH with S52T, G56D, E65K
VL: EIVLTQSPATLSLSPGERATLSCRASQSVSSYLTWYQQKPGQAPRLLSYDASNRATGIPARFSGSGSGTDFTLTISSLEPEDFAVYYCQQRSNWPLTFGGGTKVEIK

molecular target: T1, Dimeric fibrinogen-like domain of monkey (Macca fascicularis) Ang-2 conjugated to human IgG1 (monkey (Macca fascicularis)); test: SPR, hIgG1 antibody captured, room temp
T1 construct: also called Dimeric Monkey Ang-2FD; Monkey Ang-2FD-hFc
Method: (§1) Antibody was captured on a goat anti-mouse IgG polyclonal antibody surface, a goat anti-human κ polyclonal antibody (Southern Biotech, Birmingham, Ala.) surface or a goat anti-human IgG polyclonal antibody (Jackson Immuno Research Lab, West Grove, Pa.) surface created through direct amine coupling to a BIACORE™ CM5 sensor chip to form a captured antibody surface. […] Antigen-antibody binding and dissociation were monitored in real time at room temperature. Kinetic analysis was performed to calculate KD and half-life of antigen/antibody complex dissociation.
(§2) The above experiment was repeated using selected purified anti-Ang-2 antibodies cloned onto human IgG1.

T1 sequence (chain, as listed by the source limits assumed): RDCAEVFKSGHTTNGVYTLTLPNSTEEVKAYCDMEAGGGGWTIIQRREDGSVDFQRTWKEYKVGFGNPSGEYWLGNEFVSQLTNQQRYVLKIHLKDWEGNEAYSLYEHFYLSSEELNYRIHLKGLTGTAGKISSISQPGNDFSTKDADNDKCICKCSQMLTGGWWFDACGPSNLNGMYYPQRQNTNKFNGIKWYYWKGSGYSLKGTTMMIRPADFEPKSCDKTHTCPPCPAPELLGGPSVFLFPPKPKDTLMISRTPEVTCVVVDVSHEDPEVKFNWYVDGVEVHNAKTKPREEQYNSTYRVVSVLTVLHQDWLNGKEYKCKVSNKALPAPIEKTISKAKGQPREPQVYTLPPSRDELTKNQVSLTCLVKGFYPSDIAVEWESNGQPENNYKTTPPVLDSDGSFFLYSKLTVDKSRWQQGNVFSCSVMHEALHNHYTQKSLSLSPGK

Row | Binder | Kd | T1/2
1 | B1 | 2 nM | 77 min
2 | B2 | 3.4 nM | 87 min
3 | B3 | 0.0965 nM | 780 min
4 | B4 | 0.407 nM | 143 min
5 | B5 | 0.44 nM | 84.1 min
6 | B6 | 0.239 nM | 173 min
7 | B7 | 0.439 nM | 118 min
8 | B8 | 0.199 nM | 244 min
9 | B9 | 0.818 nM | 33.5 min
10 | B10 | 0.683 nM | 93 min
11 | B11 | 0.164 nM | 53.3 min
12 | B12 | 0.354 nM | 36.6 min
13 | B13 | 1.17 nM | 17.6 min
14 | B14 | 0.283 nM | 22.3 min
15 | B15 | 0.29 nM | 41 min
16 | B16 | 0.0556 nM | 195 min

molecular target: T2, Dimeric fibrinogen-like domain of mouse (Mus musculus) Ang-2 conjugated to human IgG1 (mouse (Mus musculus)); test: SPR, hIgG1 antibody captured, room temp
T2 construct: also called Dimeric Mouse Ang-2FD; Mouse Ang-2FD-hFc
Method: as §1, §2

T2 sequence (chain, as listed by the source limits assumed): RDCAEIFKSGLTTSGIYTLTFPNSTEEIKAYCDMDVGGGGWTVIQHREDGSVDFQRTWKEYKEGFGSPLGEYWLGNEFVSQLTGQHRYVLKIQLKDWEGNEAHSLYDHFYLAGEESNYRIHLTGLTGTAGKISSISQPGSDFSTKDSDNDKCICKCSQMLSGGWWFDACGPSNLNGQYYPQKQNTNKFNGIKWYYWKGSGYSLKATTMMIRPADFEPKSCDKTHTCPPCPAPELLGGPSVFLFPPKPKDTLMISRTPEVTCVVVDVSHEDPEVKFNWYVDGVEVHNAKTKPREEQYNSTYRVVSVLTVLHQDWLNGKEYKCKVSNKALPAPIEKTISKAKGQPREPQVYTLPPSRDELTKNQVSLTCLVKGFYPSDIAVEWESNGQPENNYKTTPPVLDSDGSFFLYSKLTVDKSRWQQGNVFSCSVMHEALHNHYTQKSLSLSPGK

Row | Binder | Kd | T1/2
17 | B1 | 5.76 nM | 20 min
18 | B2 | 0.0971 nM | 90 min
19 | B3 | 0.124 nM | 233 min
20 | B4 | 0.177 nM | 96 min
21 | B5 | 0.347 nM | 124 min
22 | B6 | 0.185 nM | 84 min
23 | B7 | 0.529 nM | 51 min
24 | B8 | 0.218 nM | 121 min
25 | B9 | 0.484 nM | 61.9 min
26 | B10 | 0.276 nM | 58 min
27 | B11 | 0.357 nM | 47 min
28 | B12 | 0.402 nM | 37.6 min
29 | B13 | 0.446 nM | 63.7 min
30 | B14 | 0.328 nM | 34.4 min
31 | B15 | 0.22 nM | 43.8 min
32 | B16 | 0.0913 nM | 105 min

molecular target: T3, Dimeric fibrinogen-like domain of human Ang-2 conjugated to human IgG1 (human); test: SPR, hIgG1 antibody captured, room temp
T3 construct: also called Dimeric Human Ang-2FD; Human Ang-2FD-hFc
Method: as §1, §2

T3 sequence (chain, as listed by the source limits assumed): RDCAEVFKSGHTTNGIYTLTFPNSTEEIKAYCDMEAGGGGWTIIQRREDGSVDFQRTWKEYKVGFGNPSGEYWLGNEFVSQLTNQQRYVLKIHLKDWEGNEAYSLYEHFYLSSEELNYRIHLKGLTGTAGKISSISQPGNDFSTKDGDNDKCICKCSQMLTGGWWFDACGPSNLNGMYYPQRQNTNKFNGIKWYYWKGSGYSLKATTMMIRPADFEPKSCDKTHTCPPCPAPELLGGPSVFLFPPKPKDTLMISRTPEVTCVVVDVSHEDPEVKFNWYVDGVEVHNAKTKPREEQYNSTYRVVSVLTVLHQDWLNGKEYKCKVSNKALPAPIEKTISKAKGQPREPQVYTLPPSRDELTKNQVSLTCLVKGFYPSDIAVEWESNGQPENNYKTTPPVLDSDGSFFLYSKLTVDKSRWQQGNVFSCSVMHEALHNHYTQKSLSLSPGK

Row | Binder | Kd | T1/2
33 | B1 | 0.162 nM | 81 min
34 | B2 | 0.234 nM | 62 min
35 | B3 | 0.0882 nM | 254 min
36 | B4 | 0.118 nM | 109 min
37 | B5 | 0.245 nM | 147 min
38 | B6 | 0.115 nM | 107 min
39 | B7 | 0.386 nM | 57 min
40 | B8 | 0.164 nM | 127 min
41 | B9 | 0.331 nM | 86.1 min
42 | B10 | 0.186 nM | 65 min
43 | B11 | 0.201 nM | 50.4 min
44 | B12 | 0.289 nM | 38.8 min
45 | B13 | 0.5 nM | 37.1 min
46 | B14 | 0.262 nM | 26.6 min
47 | B15 | 0.22 nM | 38.5 min
48 | B16 | 0.079 nM | 126 min

From patent US20150147342A1 (published 2015)
